# Source: publication PMC10344899, “ZmmiR169q/ZmNF-YA8 is a module that homeostatically regulates primary root growth and salt tolerance in maize”
# T1: ZmNF-YA8 (Zea mays, UniProt B6SPD7 2-301)
# T1 sequence: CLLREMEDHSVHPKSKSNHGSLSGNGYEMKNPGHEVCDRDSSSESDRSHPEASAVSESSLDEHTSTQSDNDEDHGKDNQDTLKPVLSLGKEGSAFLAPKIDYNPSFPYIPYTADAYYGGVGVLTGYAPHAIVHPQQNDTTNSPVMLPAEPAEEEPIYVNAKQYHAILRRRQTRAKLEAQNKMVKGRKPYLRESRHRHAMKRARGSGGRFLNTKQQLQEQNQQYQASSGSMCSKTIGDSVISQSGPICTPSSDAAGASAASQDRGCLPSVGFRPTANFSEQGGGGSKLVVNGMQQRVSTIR
# B1: ZmERF1B promoter P1 CCAAT-box EMSA probe (dsDNA)
# DNA 1: GGCGCGCATTCGCCTCGCCTCCAATTCCCATCCATCACTAACTTG
# DNA 2: CAAGTTAGTGATGGATGGGAATTGGAGGCGAGGCGAATGCGCGCC
# Target: T1, ZmNF-YA8
# Experiment: EMSA; shifted band reduced by 20x unlabelled probe and eliminated at 40x; 20 min incubation; nondenaturing 4% polyacrylamide gel, 0.5x TBE; LightShift Chemiluminescent EMSA kit; binding buffer, salt, pH and temperature not stated
# Settings: protein: recombinant; tags: His (pET28a); blunt
binder,measurement,value
B1,binding result,binds
